Assay results: US12390535B2, “Method of making oral dosage forms” (UNIVERSITÄT HEIDELBERG, priority 2018, dated 2025)

Experiment: Zetasizer measurement of zeta potential of liposomes
Assay type: physicochemical
Details: CPP coupled after liposome preparation, eight equivalents relative to first lipid (FIG. 1)
Procedure: The zeta potential can be determined by methods known in the art. The zeta potential may be determined after dilution of the liposomes to a lipid concentration of 0.95 mg/ml using a 50 mM phosphate buffer with a pH of 7.4. The default settings of the automatic mode of the Zetasizer Nano ZS from Malvern™ (Malvern Instruments Ltd., Worcestershire, United Kingdom) can be chosen as follows: number of measurements=3; run duration=10 s; number of runs=10; equilibration time=60 s; refractive index solvent 1.330; refractive index polystyrene cuvette 1.590; viscosity=0.8872 mPa s; temperature=25° C.; dielectric constant=78.5 F/m; backscattering mode (173°); automatic voltage selection; Smoluchowski equation.
The particle size, PDI and zeta potential of all liposomal formulations were determined at room temperature using a zetasizer Nano ZS from Malvern™ (Malvern Instruments Ltd., Worcestershire, United Kingdom). Size and PDI were measured after dilution to a lipid concentration of 0.076 mg/ml with a 10 mM phosphate buffer with a pH of 7.4 using the automatic mode. The zeta potential was determined after dilution to a lipid concentration of 0.95 mg/ml by a 50 mM phosphate buffer with a pH of 7.4. […]

RRRRRRRRRC (cyclo(RRRRRRRRRC); also: coupled to liposomes) [R9C, here coupled to liposomes after their preparation]
zeta potential: only slightly positive
